Measurements from PMC8187723.

Target: recombinant human MXRA8-Fc fusion protein (UniProt Q9BRK3)
Details: 37 °C; n = 2; parent: est. 19; read off a plot

Ross River virus T48, CPER-recovered wild type, purified virus (E1/E2 envelope glycoproteins on the virion) E2:H64W
Kd: 66 nM
